Source: the supplement of paper PMC9170038

Test system: MS2 coat protein
Experiment: apparent KD of MS2 coat protein, switch ON state; designed switch direction (-1 OFF switch, 1 ON switch): -1; higher = weaker reporter binding
Settings: FMN input: 0 or 200 uM; Eterna round: R93 (includes R88 designs)
Method in brief: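 Designed RNA switches, transcribed on-chip from Illumina sequencing clusters, were titrated with SNAP-549-labelled MS2 coat protein from 0.7 or 1.5 nM to 3 µM in twofold steps. The solution was 100 mM Tris-HCl pH 7.5, 80 mM KCl, 4 mM MgCl2, with constant ligand or without it. Apparent KD is the median over each design's normalised cluster binding-curve fits.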

For “AAAAACCUAGGAUAUACAUGAGGAUCACCCAUGUAAAAAAAAAAAAAGGGAAAAAAAAGUAGAAGGAGGAAAAA [Sekhemre Wadjkhaw Sobekemsaf I]”, which “apparent KD of MS2 coat protein” value is on record?
Its value is 20.6 nM.

“UUUAUGUGAGGAUAUGUACAGAAAAAAAAGGGUGUAACUGUACAGAAGGCACAUGAGGAUCACCCAUGUGCAUU [EX4 382: S S Pseudoknot 7]” was tested. Which “apparent KD of MS2 coat protein” value did it give?
Its value is 27.9 nM.

Which “apparent KD of MS2 coat protein” value does the source give for “GGAUGCGUAGGAUAUACAUGAGGAUCACCCAUGUGAGAGAAAAAAGUGAGAAAGAAAAGUAGAAGGACGUGUCG [salish99-ex3-90]” here?
Its value is 34.9 nM.

For “AAGAUGUUAGGAUAUGCUGCUCGUCACAAAAGUGAUGAGUAGCAGAAGGGACAUGAGGAUCACCCAUGUAAAGA [JL eternac mod 6]”, which “apparent KD of MS2 coat protein” value is on record?
Its value is 45.5 nM.

For “AACAGUACAGGAUAUACAUGAGGAUCACCCAUGUAGAGAAAAUAAAACAAAAAUAAAAGUAGAAGGGUACUGGA [Ruby 47]”, which “apparent KD of MS2 coat protein” value is on record?
The value was 26.6 nM.

“AGCUAGUCAGGAUAUACGAACAUGUCAAAAGACGUGAAAUAACAUGAGGAUCACCCAUGUAGAAGGGACUAGCA [Mat - Exclusion 2 - JL-Eli mod - D52]” was tested. Which “apparent KD of MS2 coat protein” value did it give?
The value was 17.4 nM.

How did the “apparent KD of MS2 coat protein” value turn out when “AUAAACAGAGGAUAUACGCAAAUAAAAGAAAAUAAAGAAACACAUGAGGAUCACCCAUGUAGAAGGCUGGAAAA” was run?
Its value is 21.1 nM.

Which “apparent KD of MS2 coat protein” value does the source give for “CUCUUGUCAGGAUAUGUAAGAAAAGAAGAGAAAGAAAAGAAACAGAAGGGACAUGAGGAUCACCCAUGUAAGAA [EteRNA is fun!]” here?
Its value is 66.4 nM.

For “AAACCACAUGAGGAUCACCCAUGUCAGGAUAUGCUAUGGAAAAUAAAAAUAAAACAUAGCAGAAGGGACAAAAA [Denovo 6]”, which “apparent KD of MS2 coat protein” value is on record?
Its value is 37.2 nM.

“AAGCUGGUAGGAUAUACUAGGGCGACUAAUGCGCCGAUAGGACAUGAGGAUCACCCAUGUAGAAGGGCCAGAAA [JR_Exc002_Sub406]” was tested. Which “apparent KD of MS2 coat protein” value did it give?
The value was 187 nM.

“AAAAGGGCAGGAUAUACAUGAGGAUCACCCAUGUGAAAAAAAAAAAAAAAAAAAAAGUGUAGAAGGGUCAAAAA [Exclusion 3 - Omei 3]” was tested. Which “apparent KD of MS2 coat protein” value did it give?
The value was 55.3 nM.

With “AACAUGUCAGGAUAUGCAACAGGAGACUGACACGCGAGUGAGCAGAAGGGACAUGAGGAUCACCCAUGUUCAAA [Meechl Ex4 3]” as the sequence, how does the “apparent KD of MS2 coat protein” value read?
Its value is 21.1 nM.

For “CUCUUGUAAGGAUAUUAAUGAAAUGAAGUGAAAGAAAAGAAUAAGAAGGUACAUGAGGAUCACCCAUGUUAGAA [EteRNA is fun!]”, which “apparent KD of MS2 coat protein” value is on record?
The value was 28.9 nM.

Which “apparent KD of MS2 coat protein” value does the source give for “GUGUACAGAGGAUAUACAUGGGCAUGGAAACAUGCAUCCUCACAUGAGGAUCACCCAUGUAGAAGGCUGUACAC [Ex2: 708]” here?
Its value is 21.6 nM.

“AGGAAACAUGAGGAUCACCCAUGUGAGGAUAUACAAAAGAAAAGAAAAGAAAGAAGAAGUAGAAGGCACAAGAA [Thesh]” was tested. Which “apparent KD of MS2 coat protein” value did it give?
Its value is 26.2 nM.

How did the “apparent KD of MS2 coat protein” value turn out when “AAAAAACAUGAGGAUCACCCAUGUUAGGAUAUUCCUAAAAAAAAAAAAAAAAAAAAUGGAAGAAGGAACAAAAA [excalibur10]” was run?
Its value is 23.5 nM.

How did the “apparent KD of MS2 coat protein” value turn out when “AAAAAGUGAGGAUAUCUGGAUAGGAAAAAGAAAACCUAUCCAGAGAAGGCACAUGAGGAUCACCCAUGUAAAAA [JL cataway mod 5]” was run?
Its value is 31.6 nM.

Which “apparent KD of MS2 coat protein” value does the source give for “AAGAAGUGAGGAUAUGGAAAAGAAAAGAAAAGAAAAGAAAACCAGAAGGCACAUGAGGAUCACCCAUGUAAGAA [Artabanus the Hyrcanian]” here?
The value was 29.5 nM.

How did the “apparent KD of MS2 coat protein” value turn out when “AACAGGUCAGGAUAUGUGCAACAGAAAAGAGCAGAAUAAGCACAGAAGGGACAUGAGGAUCACCCAUGUUAACA [May 27]” was run?
Its value is 24.6 nM.

Which “apparent KD of MS2 coat protein” value does the source give for “AACAAGUAAGGAUAUGCUGCUCGUCACAAAAGUGAUGAGUAGCAGAAGGUACAUGAGGAUCACCCAUGUAAAGA [JL eternac mod 16]” here?
The value was 28 nM.

For “AUCAUGUAAGGAUAUUAAAGAAAAGAAAAGAAAGAAAAGAAUAAGAAGGUACAUGAGGAUCACCCAUGUAAGAA [EteRNA is fun!]”, which “apparent KD of MS2 coat protein” value is on record?
Its value is 27 nM.

With “AAGAAGUGAGGAUAUACAUGAGGAUCACCCAUGUAAAAGAAAGAAGGGAAAGAGAAAAGUAGAAGGCGCAAGAA [Neferibre Psamtik II]” as the sequence, how does the “apparent KD of MS2 coat protein” value read?
Its value is 38.9 nM.

For “CUCUUGUGAGGAUAUCCAUGAAAUGAAGUGAAAGAAAAGAAGGAGAAGGCACAUGAGGAUCACCCAUGUUAGAA [EteRNA is fun!]”, which “apparent KD of MS2 coat protein” value is on record?
Its value is 49.6 nM.

For “AAAACGGUAGGAUAUACAAUUGGGAACUAGACCGAAAAAAAACAUGAGGAUCACCCAUGUAGAAGGGCCAAAAA [Ex2 Malc#11]”, which “apparent KD of MS2 coat protein” value is on record?
Its value is 47.8 nM.

“AAGAAGCAAGGAUAUACAUGAGGAUCACCCAUGUAAAAGAAAGAAAGGGAAAAGAAAAGUAGAAGGUGCAAGAA [Titkheperure Pasebakhenniut II]” was tested. Which “apparent KD of MS2 coat protein” value did it give?
The value was 45.2 nM.

“AUACGCUGAGGAUAUACCGAAACAACAUCCUCGUGUAUAAUACAUGAGGAUCACCCAUGUAGAAGGCAGUAAAA [Usmaan]” was tested. Which “apparent KD of MS2 coat protein” value did it give?
Its value is 46.2 nM.

For “AACUGACAUGAGGAUCACCCAUGUCAGGAUAUGCAUCUUAGGAAAAAAAAACUAAGAUGCAGAAGGGACAAGGG [Amethyst 48]”, which “apparent KD of MS2 coat protein” value is on record?
Its value is 22.7 nM.

With “AAGAAGUUAGGAUAUACAAGAAAGAAAGAAAAGAAAAGAAAACAUGAGGAUCACCCAUGUAGAAGGAACUAGAA [EteRNA is fun!]” as the sequence, how does the “apparent KD of MS2 coat protein” value read?
Its value is 26.8 nM.

For “AAAAAUGCAGGAUAUACGAACAUGUCAAAAGACGUGAAGGGACAUGAGGAUCACCCAUGUAGAAGGGUAAAGAA [JL Neck Breaker 14]”, which “apparent KD of MS2 coat protein” value is on record?
The value was 248 nM.

How did the “apparent KD of MS2 coat protein” value turn out when “AAAAAACAUGAGGAUCACCCAUGUGAGGAUAUACAAAACCCAUAUAAAAAGGGAAAAAGUAGAAGGCACAAAAA [wbt round 1 mod 11]” was run?
Its value is 27.5 nM.

For “AUCAUGUUAGGAUAUAAAAGAAAAGAAAAGAAAGAAAAGAAUUAGAAGGAACAUGAGGAUCACCCAUGUAAGAA [EteRNA is fun!]”, which “apparent KD of MS2 coat protein” value is on record?
Its value is 34.7 nM.

“GAAAAACAUGAGGAUCACCCAUGUAAGGAUAUGCUAAAAAACACGGAAAACGUGAAUAGCAGAAGGUACAAAAA [Mat - Exclusion 1 - Eli mod - D86]” was tested. Which “apparent KD of MS2 coat protein” value did it give?
The value was 20.6 nM.

How did the “apparent KD of MS2 coat protein” value turn out when “AGCUAGUCAGGAUAUACGAACAGGUGAAAAGACGUAAGGGAACAUGAGGAUCACCCAUGUAGAAGGGACUAGCA [Diamond 53]” was run?
Its value is 91.3 nM.

For “AAGAGGCUAGGAUAUACACAUCUGAUGACUCAACCUAAAACACAUGAGGAUCACCCAUGUAGAAGGAGCGAAAG [Qucequor]”, which “apparent KD of MS2 coat protein” value is on record?
Its value is 20.2 nM.

With “AACUGACAUGAGGAUCACCCAUGUCAGGAUAUGCUUCAUAAAAAAAAAAAAAAAUGAUGCAGAAGGGAUAUGGG [Design 33 :P Sub-opt 9]” as the sequence, how does the “apparent KD of MS2 coat protein” value read?
The value was 18 nM.

Which “apparent KD of MS2 coat protein” value does the source give for “AAAAAGUGAGGAUAUACAUGAGGAUCACCCAUGUAAAAGGUCAGGGUGGCGGAGGACGGUAGAAGGCGCAAAAA [Excls3-IX]” here?
The value was 34.5 nM.

With “AGUAGUACAGGAUAUACAUGAGGAUCACCCAUGUGAAAAUUAAGUGGCGUACCACAAAGUAGAAGGGUACUACA [Mat - Exclusion 3 - JL mod - D36]” as the sequence, how does the “apparent KD of MS2 coat protein” value read?
The value was 31 nM.

For “AAAAAGUGAGGAUAUACAUGAGGAUCACCCAUGUAAAAGGUCGCGGGAGCGGAGGACGGUAGAAGGCGCAAAAA [Excls3-VIIi]”, which “apparent KD of MS2 coat protein” value is on record?
The value was 25.3 nM.

How did the “apparent KD of MS2 coat protein” value turn out when “AACAGUACAGGAUAUACAUGAGGAUCACCCAUGUGAGAAUUAAAAGGCGUACCUAAAAGUAGAAGGGUACUGGA [JL Maslow Revisted mod 18]” was run?
Its value is 28.3 nM.

With “AAAAAGGCAGGAUAUACAAAACAGGGAAACCUGAAAGGGAAACAUGAGGAUCACCCAUGUAGAAGGGCCAAGAA [Clint Eastwood 64% 1]” as the sequence, how does the “apparent KD of MS2 coat protein” value read?
Its value is 37.3 nM.

“GCUGGCCUAGGAUAUACAUGAGGAUCACCCAUGUGAGAGAAAAAAGUGAGAAAGAAAAGUAGAAGGAGGUUAGG [salish99-ex3-115]” was tested. Which “apparent KD of MS2 coat protein” value did it give?
Its value is 50.2 nM.

With “AAAAAGUCAGGAUAUACGGGAGUGCGAAAGCACAAAAAAAAACAUGAGGAUCACCCAUGUAGAAGGGACAAGAA [Married to this design, 61% 5]” as the sequence, how does the “apparent KD of MS2 coat protein” value read?
Its value is 46.1 nM.

With “AGCUAGUCAGGAUAUACGAACAGGUCAAAAGACGUGAAGGGACAUGAGGAUCACCCAUGUAGAAGGGACUAGCA [Mat - Exclusion 2 - JL mod - D23]” as the sequence, how does the “apparent KD of MS2 coat protein” value read?
Its value is 39.6 nM.

Which “apparent KD of MS2 coat protein” value does the source give for “UAGAACCUAGGAUAUACUUGGAAAAAUAAUGCAAAGAUAUAACAUGAGGAUCACCCAUGUAGAAGGAGGAGUAA [JR_Exc002_Sub020]” here?
Its value is 48.5 nM.

For “AACAUGUGAGGAUAUUAAAGAAAAGAAAAGAAAGAAAAGAAUAAGAAGGCACAUGAGGAUCACCCAUGUAAGAA [EteRNA is fun!]”, which “apparent KD of MS2 coat protein” value is on record?
The value was 32.5 nM.
